How the values were obtained:
β-amyloid (1-39) [1] = experiment: sandwich EIA, solid phase BAN-50a, label BA-27a-HRP; against β-amyloid (1-40)
β-amyloid (1-42) [2] = experiment: as above
β-amyloid (1-38) [3] = experiment: as above
β-amyloid (1-40) [4] = experiment: competitive EIA with β-Gal-labeled βA(1-40); unlabeled peptide varied
β-amyloid (1-39) [5] = experiment: sandwich EIA, solid phase BAN-50a, label BA-27a-HRP
β-amyloid (1-42) [6] = experiment: as above
β-amyloid (1-38) [7] = experiment: as above
β-amyloid (1-40) [8] = experiment: sandwich EIA, solid phase BAN-50a, label BA-27a-HRP (1000-fold dilution)
β-amyloid (1-40) [9] = experiment: sandwich EIA, solid phase BA-27a, label BAN-052a-HRP
β-amyloid (1-40) [10] = experiment: sandwich EIA, solid phase BAN-052a, label BA-27a-HRP
β-amyloid (1-40) [11] = experiment: sandwich EIA, solid phase BAN-50a, label BA-27a-HRP (1500-fold dilution)

Q: How did the cross reactivity (β-amyloid (1-39) [1]) turn out when BA-27a (antibody) was run?
A: The cross reactivity was < 2%.

Q: What about the cross reactivity (β-amyloid (1-42) [2]) of the same substance?
A: The cross reactivity was < 2%.

Q: What about the cross reactivity (β-amyloid (1-38) [3]) of the same substance?
A: The cross reactivity was < 2%.

Q: What about the IC50 (β-amyloid (1-40) [4]) of the same substance?
A: The IC50 was 200 nM.

Q: And the detection sensitivity (β-amyloid (1-39) [5])?
A: The detection sensitivity was 17 pg/well.

Q: What about the detection sensitivity (β-amyloid (1-42) [6]) of the same substance?
A: The detection sensitivity was 18 pg/well.

Q: What about the detection sensitivity (β-amyloid (1-38) [7]) of the same substance?
A: The detection sensitivity was 85 pg/well.

Q: What about the detection sensitivity (β-amyloid (1-40) [8]) of the same substance?
A: The detection sensitivity was 0.2 pg/well.

Q: What about the detection sensitivity (β-amyloid (1-40) [9]) of the same substance?
A: Its detection sensitivity is 10 pg/well.

Q: And the detection sensitivity (β-amyloid (1-40) [10])?
A: Its detection sensitivity is 0.6 pg/well.

Q: What about the detection sensitivity (β-amyloid (1-40) [11]) of the same substance?
A: The detection sensitivity was 0.2 pg/well.

Reference: patent publication US5750349
